Laboratory results from patent US12092631B2, “Optical thromboelastography systems and methods” (The General Hospital Corporation, priority 2014, dated 2024).

Tested on: human blood samples
Test: OTEG fibrinolysis measurement (LY15) in human blood samples spiked with tPA
Settings: human blood spiked with 0.5 μg/ml tPA (14% at 0 μg/ml), three repeated measurements, FIG. 13
Method: Dilutional coagulopathy is generated by serially diluting whole blood (30-60%) with phosphate buffer saline (PBS) solution to vary MA (FIGS. 9A, 9B, 9C). Diluted blood is treated with low to high doses of fibrinogen concentrate (80-160 μL) which also varies MA. Undiluted blood is treated with unfractionated heparin to reach a maximum concentration of 1 U/ml to vary PT, R and K times. To induce fibrinolysis, blood is spiked with varying concentrations of tissue plasminogen activator (tPA) to alter % LY (FIGS. 10A, 10B). Thrombocytopenia or low platelet count is achieved by blood centrifugation, and substitution of platelet-rich with platelet-poor plasma at varying doses, followed by subsequent reconstitution. […]
FIGS. 12, 12B, 12C, 12D, and 12E illustrate the effect of tissue plasminogen activator (tPA) on blood coagulation parameters (Clot Reaction Time, Clotting Time, Clot Progression Rate, Clot Stiffness, and Fibrinolysis) measured with OTEG according to an embodiment of the invention and TEG. […]
FIG. 13 illustrates reproducibility in OTEG-based fibrinolysis measurement of the parameter LY15 in human blood samples spiked with 0-0.5 μg/ml of tPA. The concentration of tPA from 0 to 0.5 μg/ml increases the fibrinolysis from 14% to 51%, which can be successfully detected with an embodiment of the invention. […]

B1: tPA: tissue plasminogen activator, spiked into blood to activate fibrinolysis (protein, UniProt P00750 36-562, looked up)
Tissue-type plasminogen …: SYQVICRDEKTQMIYQQHQSWLRPVLRSNRVEYCWCNSGRAQCHSVPVKSCSEPRCFNGGTCQQALYFSDFVCQCPEGFAGKCCEIDTRATCYEDQGISYRGTWSTAESGAECTNWNSSALAQKPYSGRRPDAIRLGLGNHNYCRNPDRDSKPWCYVFKAGKYSSEFCSTPACSEGNSDCYFGNGSAYRGTHSLTESGASCLPWNSMILIGKVYTAQNPSAQALGLGKHNYCRNPDGDAKPWCHVLKNRRLTWEYCDVPSCSTCGLRQYSQPQFRIKGGLFADIASHPWQAAIFAKHRRSPGERFLCGGILISSCWILSAAHCFQERFPPHHLTVILGRTYRVVPGEEEQKFEVEKYIVHKEFDDDTYDNDIALLQLKSDSSRCAQESSVVRTVCLPPADLQLPDWTECELSGYGKHEALSPFYSERLKEAHVRLYPSSRCTSQHLLNRTVTDNMLCAGDTRSGGPQANLHDACQGDSGGPLVCLNDGRMTLVGIISWGLGCGQKDVPGVYTKVTNYLDWIRDNMRP
fibrinolysis (LY15): 51%
